Molecular target: Human Macrophage Galactose Lectin (MGL) isoform 2 extracellular domain (residues Q85-H316) (human)
Test: SAXS

Human Macrophage Galactose Lectin (MGL) isoform 2 extracellular domain (residues Q85-H316) (domain or fragment)
stoichiometry N: 3

— publication doi:10.1101/2023.03.02.530591
